In patent KR20130140557A (dated 2013):

T1: IL-6R-Fc 항원 (IL-6R full domain 단백질) (human, UniProt P08887 20-365)
T1 construct: domain: IL-6R full domain; Expressed transiently in HEK293E and purified from the supernatant; also called IL-6R 항원; not shown: Fc part from expression vector pYK 604
T1 sequence (looked up): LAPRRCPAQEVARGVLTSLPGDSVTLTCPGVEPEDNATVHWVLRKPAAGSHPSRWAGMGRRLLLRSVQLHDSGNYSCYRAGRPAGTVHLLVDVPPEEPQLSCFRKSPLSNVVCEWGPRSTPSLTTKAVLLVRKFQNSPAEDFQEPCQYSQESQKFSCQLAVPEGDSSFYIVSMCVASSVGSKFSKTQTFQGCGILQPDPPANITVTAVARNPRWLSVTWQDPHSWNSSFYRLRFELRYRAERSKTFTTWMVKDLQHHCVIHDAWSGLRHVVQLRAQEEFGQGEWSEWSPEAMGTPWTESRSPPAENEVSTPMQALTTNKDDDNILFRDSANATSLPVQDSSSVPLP

B1: 항 IL-6R 단클론 항체 A7 (IgG) (antibody, V domains shown)
VH: QMQLVESGGGLVQPGTSLRLSCAASGFKFEDYAMHWVRQAPGKGLEWVSGVSWNSGTIAYVDSVKGRFTISRDNAKNSLYLQMNSLRAEDTAVYYCARDFTYFYESSGYYAFDLWGQGTMVTVSS
VL: SQLVLTQPPSVSGAPGQRVTISCTGTNSNIGAGYDVHWYQQVPGTTPKLLIYGNTNRPSGVPDRFSGSKSGTSASLAITGLQAEDGGDYYCQSFDSSLTGSVFGTGTKVTVL
notes: Phage clone converted to whole IgG
B2: 항 IL-6R 단클론 항체 B10 (IgG) (antibody, V domains shown)
VH: QVQLVESGGGLVQPGGSLRLSCAASGFIFDDYAMFWVRQVPGKGLEWVAGINWNGNGIGYGDSVRGRFIISRDNARNSLDLQMNSLRAEDTAVYYCARPSLYGGNSEFDLWGQGTLVTVSS
VL: SQLVLTQPPSVSGAPGQTVTISCTGPTIGAGYDVHWYQQLPGAAPKLLIYGNLNRPSGVPDRFSGSKSGTSASLAITDLQAEDEADYYCHTYDSSLSGSWVFGGGTKLTVL
notes: as for B1
B3: 항 IL-6R 단클론 항체 D2 (IgG) (antibody, V domains shown)
VH: QVQLVESGAEVKKPGSSVKVSCKGSGDTFPNYAINWVRQAPGQGPEWMGRIIPMLGTSDYAEKFQGRVTITADKSTNTAYMGLNSLRSEDTAVYYCVKGPRYYGTDSYYLEKWGQGTMVTVSS
VL: B2 VL
notes: as for B1
B4: 항 IL-6R 단클론 항체 F2 (IgG) (antibody, V domains shown)
VH: QVQLVESGAEVKKPGASVKVSCKASGYTFTNYYMHWVRQAPGQGLEWMGIINPSGGNTGYAQKFQGRVTMTRDMSTSTAYMELSSLRSEDTAVYYCARGLPWGENGLDVWGQGTTVTVSS
VL: SQLVLTQPSSVSGAPGQTVTISCTGSSSNIGAGYDVHWYQQLPGTAPKVLIYGDSDRPSGVPDRFSGSKSATSASLAITGLQAEDEADYYCQSYDSSLSAYVFGTGTKVTVL
notes: as for B1
B5: 모노 파아지 클론 A7 (scFv on phage) (scFv)
chain: DVHSQMQLVESGGGLVQPGTSLRLSCAASGFKFEDYAMHWVRQAPGKGLEWVSGVSWNSGTIAYVDSVKGRFTISRDNAKNSLYLQMNSLRAEDTAVYYCARDFTYFYESSGYYAFDLWGQGTMVTVSSDVHSQLVLTQPPSVSGAPGQRVTISCTGTNSNIGAGYDVHWYQQVPGTTPKLLIYGNTNRPSGVPDRFSGSKSGTSASLAITGLQAEDGGDYYCQSFDSSLTGSVFGTGTKVTVL
B6: 모노 파아지 클론 F2 (scFv on phage) (scFv)
chain: DVHSQVQLVESGAEVKKPGASVKVSCKASGYTFTNYYMHWVRQAPGQGLEWMGIINPSGGNTGYAQKFQGRVTMTRDMSTSTAYMELSSLRSEDTAVYYCARGLPWGENGLDVWGQGTTVTVSSDVHSQLVLTQPSSVSGAPGQTVTISCTGSSSNIGAGYDVHWYQQLPGTAPKVLIYGDSDRPSGVPDRFSGSKSATSASLAITGLQAEDEADYYCQSYDSSLSAYVFGTGTKVTVL
B7: 모노 파아지 클론 B10 (scFv on phage) (scFv)
chain: DVHSQVQLVESGGGLVQPGGSLRLSCAASGFIFDDYAMFWVRQVPGKGLEWVAGINWNGNGIGYGDSVRGRFIISRDNARNSLDLQMNSLRAEDTAVYYCARPSLYGGNSEFDLWGQGTLVTVSSDVHSQLVLTQPPSVSGAPGQTVTISCTGPTIGAGYDVHWYQQLPGAAPKLLIYGNLNRPSGVPDRFSGSKSGTSASLAITDLQAEDEADYYCHTYDSSLSGSWVFGGGTKLTVL
B8: 모노 파아지 클론 D2 (scFv on phage) (scFv)
chain: DVHSQVQLVESGAEVKKPGSSVKVSCKGSGDTFPNYAINWVRQAPGQGPEWMGRIIPMLGTSDYAEKFQGRVTITADKSTNTAYMGLNSLRSEDTAVYYCVKGPRYYGTDSYYLEKWGQGTMVTVSSDVHSQLVLTQPPSVSGAPGQTVTISCTGPTIGAGYDVHWYQQLPGAAPKLLIYGNLNRPSGVPDRFSGSKSGTSASLAITDLQAEDEADYYCHTYDSSLSGSWVFGGGTKLTVL

Each binder was assayed against T1, IL-6R-Fc 항원 (IL-6R full domain 단백질) (assay: ELISA (summary table; same value as the 3rd table)).

Binder	Kd
B1	2.3 nM
B2	4.3 nM
B3	7.5 nM
B4	0.35 nM

What follows are binders tested against Fc (assay: mono phage ELISA, Fc coated 100 ng/well, anti-M13-HRP).

Binder	OD 490 nm (Fc)
B5	0.0421 OD490
B6	0.0405 OD490
B7	0.0406 OD490
B8	0.0415 OD490

Each binder was assayed against T1, IL-6R-Fc 항원 (IL-6R full domain 단백질) (assay: ELISA titration on coated IL-6R, anti-Fab-HRP).

Binder	Kd
B1	2.3 nM
B2	4.3 nM
B3	7.5 nM
B4	0.35 nM

What follows are binders tested against T1, IL-6R-Fc 항원 (IL-6R full domain 단백질) (assay: ELISA, coated IL-6R 100 ng/well, anti-Fab-HRP).

Binder	OD 490 nm at 0.02441 nM antibody	OD 490 nm at 0.04883 nM antibody	OD 490 nm at 0.09766 nM antibody	OD 490 nm at 0.19531 nM antibody	OD 490 nm at 0.39063 nM antibody	OD 490 nm at 0.78125 nM antibody	OD 490 nm at 1.5625 nM antibody	OD 490 nm at 3.125 nM antibody	OD 490 nm at 6.25 nM antibody	OD 490 nm at 12.5 nM antibody
B1	0.514 OD490	0.498 OD490	0.497 OD490	0.546 OD490	0.618 OD490	0.782 OD490	1.17 OD490	1.64 OD490	2.13 OD490	2.58 OD490
B2	0.468 OD490	0.451 OD490	0.462 OD490	0.429 OD490	0.476 OD490	0.5 OD490	0.607 OD490	0.761 OD490	1.04 OD490	1.39 OD490
B3	0.449 OD490	0.451 OD490	0.45 OD490	0.469 OD490	0.473 OD490	0.479 OD490	0.584 OD490	0.719 OD490	0.981 OD490	1.47 OD490
B4	0.535 OD490	0.584 OD490	0.743 OD490	1.01 OD490	1.41 OD490	1.9 OD490	2.43 OD490	2.72 OD490	2.71 OD490	2.92 OD490

Same assay, conditions: not given

Binder	OD 490 nm at 25 nM antibody	OD 490 nm at 50 nM antibody
B1	2.84 OD490	3.1 OD490
B2	1.78 OD490	2.09 OD490
B3	1.94 OD490	2.38 OD490
B4	2.89 OD490	2.99 OD490

These binders were tested against a-Myc (assay: mono phage ELISA, a-Myc coated 100 ng/well, anti-M13-HRP).

Binder	OD 490 nm (a-myc)
B5	0.0797 OD490
B6	0.287 OD490
B7	0.113 OD490
B8	0.303 OD490

These binders were tested against T1, IL-6R-Fc 항원 (IL-6R full domain 단백질) (assay: mono phage ELISA, antigen coated 100 ng/well, anti-M13-HRP).

Binder	OD 490 nm (IL-6R full)
B5	2.48 OD490
B6	2.86 OD490
B7	2.1 OD490
B8	2.34 OD490

The binders below were run against T1, IL-6R-Fc 항원 (IL-6R full domain 단백질) (assay: mono phage ELISA, ratio of OD on IL-6R full to OD on a-myc).

Binder	Ratio (IL-6R full / a-myc)
B5	31.1
B6	9.96
B7	18.6
B8	7.71
